In the RNAGym collection of RNA variant scans (doi:10.1093/molbev/msab373):

B1: Azoarcus group I ribozyme (parent)
chain: GUGCCUUGCGCCGGGAAACCACGCAAGGGAUGGUGUCAAAUUCGGCGAAACCUAAGCGCCCGCCCGGGCGUAUGGCAACGCCGAGCCAAGCUUCGGCGCCUGCGCCGAUGAAGGUGUAGAGACUAGACGGCACCCACCUAAGGCAAACGCUAUGGUGAAGGCAUAGUCCAGGGAGUGGCGAAAGUCACACAAACCGG

Variants of: B1
Assay: reverse-splicing fitness (ratio to wild type); higher = more active; in vitro selection; Mg2+ level not given
In short: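 An in vitro group I ribozyme library with randomized positions was T7-transcribed and gel-purified. In triplicate, 10 pmol RNA in EPPS pH 7.5 was reacted with 50 pmoles of a 30-nt RNA substrate for 1 h at 37 °C across several added MgCl2 levels (1–48 mM), then stopped with EDTA. Products were reverse transcribed from a substrate-complementary primer, PCR-amplified and sequenced (HiSeq 4000). Fitness is a variant's read proportion after selection over that before, normalised to wild type.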

Variant | reverse-splicing fitness
C82A A111G A120U A145C C150U U176A | 0.00447
C82A A111G A120U A145C C150U U176C | 0.00422
C82A A111G A120U A145C C150U U176G | 0.00292
C82A A111G A120G C169U U176G | 0.00531
C82A A111G A120G C169U U176A | 0.0208
C82A A111G A120G C169U U176C | 0.0183
C82A A111G A120G A145U C150G U176C | 0.00837
C82A A111G A120G A145U C150G U176A | 0.00605
C82A A111G A120G A145U C150G U176G | 0.00378
C82A A111G A120U | 0.0351
C82A A111G A120G A145U C150U C169A U176C | 0.0116
C82A A111G A120G A145U C150U C169A U176A | 0.0141
C82A A111G A120G A145U C150U C169A U176G | 0.00488
C82A A111G A120G A145C C150U C169A U176C | 0.00635
C82A A111G A120G A145C C150U C169A U176A | 0.0114
C82A A111G A120G A145C C150U C169A U176G | 0.00561
C82A A111G A120U A145C C150U C169G U176C | 0.0025
C82A A111G A120U A145C C150U C169G U176A | 0.00301
C82A A111G A120U A145C C150U C169G U176G | 0.00192
C82A A111G A120G C150U C169U | 0.0102
C82A A111G A120G C150U C169A | 0.00952

Variant | reverse-splicing fitness
C82A A111G A120G C150U C169G | 0.0108
C82A A111G A120U A145G C150A C169A U176C | 0.0046
C82A A111G A120U A145G C150A C169A U176G | 0.00291
C82A A111G A120U A145G C150A C169A U176A | 0.00865
C82A A111G A120G A145U C150A U176C | 0.0154
C82A A111G A120G A145U C150A U176G | 0.00563
C82A A111G A120G A145U C150A U176A | 0.0117
C82A A111G A120U A145C C169G U176C | 0.00189
C82A A111G A120U A145C C169G U176A | 0.00249
C82A A111G A120U A145C C169G U176G | 0.00175
C82A A111G A120U A145C C150G C169G U176A | 0.00289
C82A A111G A120U A145C C150G C169G U176G | 0.00217
C82A A111G A120U A145C C150G C169G U176C | 0.00289
C82A A111G A120U A145C C150A C169A U176G | 0.00214
C82A A111G A120U A145C C150A C169A U176A | 0.0022
C82A A111G A120U A145C C150A C169A U176C | 0.0024
C82A A111G A120G A145U C169A U176G | 0.0046
C82A A111G A120G A145U C169A U176A | 0.0117
C82A A111G A120G A145U C169A U176C | 0.0121
C82A A111G A120G A145G C150U C169A U176A | 0.016
C82A A111G A120G A145G C150U C169A U176G | 0.0063

Variant | reverse-splicing fitness
C82A A111G A120G A145G C150U C169A U176C | 0.0174
C82A A111G A120U A145G C150G | 0.00855
C82A A111G A120U A145G C150A | 0.00991
C82A A111G A120U A145C C169U U176G | 0.00153
C82A A111G A120U A145C C169U U176C | 0.00282
C82A A111G A120U A145C C169U U176A | 0.00302
C82A A111G A120G A145G C150G C169G U176G | 0.00614
C82A A111G A120G A145G C150G C169G U176A | 0.0101
C82A A111G A120G A145G C150G C169G U176C | 0.0114
C82A A111G A120U A145C C150A U176A | 0.003
C82A A111G A120U A145C C150A U176C | 0.00355
C82A A111G A120U A145C C150A U176G | 0.00207
C82A A111G A120G A145U C150G C169A U176A | 0.00976
C82A A111G A120G A145U C150G C169A U176C | 0.0101
C82A A111G A120G A145U C150G C169A U176G | 0.00526
C82A A111G A120U A145G C150A C169U U176C | 0.00493
C82A A111G A120U A145G C150A C169U U176G | 0.00288
C82A A111G A120U A145G C150A C169U U176A | 0.0049
C82A A111G A120G A145U C169G | 0.0112
C82A A111G A120G A145U C169U | 0.00927
C82A A111G A120G A145U C169A | 0.00824

Variant | reverse-splicing fitness
C82A A111G A120G A145C C150G C169U U176C | 0.0141
C82A A111G A120G A145C C150G C169U U176G | 0.00529
C82A A111G A120G A145C C150G C169U U176A | 0.0129
C82A A111G A120G A145U C150A | 0.00927
C82A A111G A120G A145U C150U | 0.0134
C82A A111G A120G A145U C150G | 0.00709
C82A A111G A120G A145C C150U U176A | 0.00898
C82A A111G A120G A145C C150U U176G | 0.00504
C82A A111G A120G A145C C150U U176C | 0.0104
C82A A111G A120U A145G C150A C169G U176G | 0.00282
C82A A111G A120U A145G C150A C169G U176C | 0.00705
C82A A111G A120U A145G C150A C169G U176A | 0.015
C82A A111G A120G A145U C150G C169U U176G | 0.00483
C82A A111G A120G A145U C150G C169U U176C | 0.0132
C82A A111G A120G A145U C150G C169U U176A | 0.012
C82A A111G A120G A145G C150G U176A | 0.00684
C82A A111G A120G A145G C150G U176G | 0.00568
C82A A111G A120G A145G C150G U176C | 0.00999
C82A A111G A120G A145U C169U U176A | 0.0204
C82A A111G A120G A145U C169U U176C | 0.0158
C82A A111G A120G A145U C169U U176G | 0.00416
